{"source": "patent US20190076400A1", "about": "(PROTAGONIST THERAPEUTICS, published 2019)", "note": "Square brackets hold non-standard residues; d marks the D form. Primed or numbered codes have the meaning given here. Phe(2,6-Me2,4-CONH2) = Cc1cc(C(N)=O)cc(C)c1C[C@H](N)C(=O)O; Phe(3,4-(OMe)2) = COc1ccc(C[C@H](N)C(=O)O)cc1OC; Phe(3,4-Cl2) = N[C@@H](Cc1ccc(Cl)c(Cl)c1)C(=O)O; Trp(5-OH) = N[C@@H](Cc1c[nH]c2ccc(O)cc12)C(=O)O; Phe(4-COOH) = N[C@@H](Cc1ccc(C(=O)O)cc1)C(=O)O; Phe(4-tBu) = CC(C)(C)c1ccc(C[C@H](N)C(=O)O)cc1; Dip = N[C@H](C(=O)O)C(c1ccccc1)c1ccccc1; Phe(4-F) = N[C@@H](Cc1ccc(F)cc1)C(=O)O; Dmt = Cc1cc(O)cc(C)c1C[C@H](N)C(=O)O; NMeR = CN[C@@H](CCCNC(=N)N)C(=O)O; dNMeF = CN[C@H](Cc1ccccc1)C(=O)O; hPhe = N[C@@H](CCc1ccccc1)C(=O)O; αMeF = C[C@](N)(Cc1ccccc1)C(=O)O; Tic = O=C(O)[C@@H]1Cc2ccccc2CN1; β3hF = N[C@H](CC(=O)O)Cc1ccccc1; N(octyl)Gly = CCCCCCCCNCC(=O)O; Tic(7-OH)′ = not defined here; Nle = CCCC[C@H](N)C(=O)O; THP = not defined here; Aib = CC(C)(N)C(=O)O; βAla = NCCC(=O)O; Sar = CNCC(=O)O", "data": [{"target": "δ-opioid receptor (DOR), Human-ORPD1 (human, UniProt P41143 1-372)", "sequence (P41143 whole entry, stated change not applied)": "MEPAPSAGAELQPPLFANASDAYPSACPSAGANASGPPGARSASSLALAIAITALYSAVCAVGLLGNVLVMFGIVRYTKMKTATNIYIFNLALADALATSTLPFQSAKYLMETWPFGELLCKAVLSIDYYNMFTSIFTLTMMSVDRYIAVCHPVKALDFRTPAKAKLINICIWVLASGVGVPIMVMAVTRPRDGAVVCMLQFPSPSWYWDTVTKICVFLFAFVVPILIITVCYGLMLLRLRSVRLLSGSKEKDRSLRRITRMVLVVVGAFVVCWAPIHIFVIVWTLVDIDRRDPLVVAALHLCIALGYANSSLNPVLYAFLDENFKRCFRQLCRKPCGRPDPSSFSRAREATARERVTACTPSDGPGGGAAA", "assay": "cell-based or functional assay", "units": {"DOR EC50": "nM"}, "values": [{"binder": "H-[Dmt][dR][Dip][Sar]-NH2 (SMILES Cc1cc(O)cc(C)c1C[C@H](N)C(=O)N[C@H](CCCNC(=N)N)C(=O)N[C@H](C(=O)N(C)CC(N)=O)C(c1ccccc1)c1ccccc1)", "note": "[H-DMT-r-DPA-Sar-NH2 (Seq. ID 26)]", "DOR EC50": "> 200"}, {"binder": "H-[Phe(4-COOH)][dA]G[β3hF][Sar]-NH2", "note": "[H-Phe(4-COOH)-a-G-bhF-Sar-NH2]", "DOR EC50": "≤ 200"}, {"binder": "H-[Phe(2,6-Me2,4-CONH2)]AG[β3hF][Sar]-OH", "note": "[H-Phe(DMC)-A-G-bhF-Sar-OH]", "DOR EC50": "≤ 200"}, {"binder": "H-[Phe(2,6-Me2,4-CONH2)][dA]G[β3hF]G-NH2 (SMILES Cc1cc(C(N)=O)cc(C)c1C[C@H](N)C(=O)N[C@H](C)C(=O)NCC(=O)N[C@H](CC(=O)NCC(N)=O)Cc1ccccc1)", "note": "[H-Phe(DMC)-a-G-bhF-Gly-NH2]", "DOR EC50": "≤ 10"}, {"binder": "H-[Dmt][dR]F[N(octyl)Gly]-NH2 (SMILES CCCCCCCCN(CC(N)=O)C(=O)[C@H](Cc1ccccc1)NC(=O)[C@@H](CCCNC(=N)N)NC(=O)[C@@H](N)Cc1c(C)cc(O)cc1C)", "note": "[H-DMT-r-F-Octyl Gly-NH2]", "DOR EC50": "≤ 200"}, {"binder": "H-[Dmt][dR]F[dNMeF]-NH2 (SMILES Cc1cc(O)cc(C)c1C[C@H](N)C(=O)N[C@H](CCCNC(=N)N)C(=O)N[C@@H](Cc1ccccc1)C(=O)N(C)[C@H](Cc1ccccc1)C(N)=O)", "note": "[H-DMT-r-F-(D)N(Me)Phe-NH2]", "DOR EC50": "≤ 50"}, {"binder": "H-[Dmt][dR]F[Phe(4-F)]-NH2", "note": "[H-DMT-r-F-Phe(4-F)-NH2]", "DOR EC50": "≤ 50"}, {"binder": "H-[Phe(2,6-Me2,4-CONH2)][NMeR]G[β3hF][Sar]-NH2 (SMILES Cc1cc(C(N)=O)cc(C)c1C[C@H](N)C(=O)N(C)[C@@H](CCCNC(=N)N)C(=O)NCC(=O)N[C@H](CC(=O)N(C)CC(N)=O)Cc1ccccc1)", "note": "[H-Phe(DMC)-N(Me)Arg-G-bhF-Sar-NH2]", "DOR EC50": "≤ 200"}, {"binder": "H-[Phe(4-NHCOCH3)][dA]G[β3hF][Sar]-NH2", "note": "[H-Phe(4-NHCOCH3)-a-G-bhF-Sar-NH2]", "DOR EC50": "≤ 200"}, {"binder": "H-[Dmt][dR][Tic][Sar]-NH2 (SMILES Cc1cc(O)cc(C)c1C[C@H](N)C(=O)N[C@H](CCCNC(=N)N)C(=O)N1Cc2ccccc2C[C@H]1C(=O)N(C)CC(N)=O)", "note": "[H-DMT-r-Tic-Sar-NH2]", "DOR EC50": "> 200"}, {"binder": "H-[Tic(7-OH)′][dA]G[β3hF][Sar]-NH2", "note": "[H-Tic(7-OH)-a-G-bhF-Sar-NH2]", "DOR EC50": "≤ 50"}, {"binder": "H-[Dmt][dR]G[Dip]-NH2 (SMILES Cc1cc(O)cc(C)c1C[C@H](N)C(=O)N[C@H](CCCNC(=N)N)C(=O)NCC(=O)N[C@H](C(N)=O)C(c1ccccc1)c1ccccc1)", "note": "[H-DMT-r-G-DPA-NH2]", "DOR EC50": "> 200"}, {"binder": "H-[Dmt][dR]FL-NH2 (SMILES Cc1cc(O)cc(C)c1C[C@H](N)C(=O)N[C@H](CCCNC(=N)N)C(=O)N[C@@H](Cc1ccccc1)C(=O)N[C@@H](CC(C)C)C(N)=O)", "note": "[H-DMT-r-F-L-NH2]", "DOR EC50": "≤ 50"}, {"binder": "H-[Dmt][dA]V[β3hF][Sar]-NH2 (SMILES Cc1cc(O)cc(C)c1C[C@H](N)C(=O)N[C@H](C)C(=O)N[C@H](C(=O)N[C@H](CC(=O)N(C)CC(N)=O)Cc1ccccc1)C(C)C)", "note": "[H-DMT-a-Val-bhF-Sar-NH2]", "DOR EC50": "≤ 200"}, {"binder": "H-[Phe(2,6-Me2,4-CONH2)][dD]G[β3hF][Sar]-NH2 (SMILES Cc1cc(C(N)=O)cc(C)c1C[C@H](N)C(=O)N[C@H](CC(=O)O)C(=O)NCC(=O)N[C@H](CC(=O)N(C)CC(N)=O)Cc1ccccc1)", "note": "[H-Phe(DMC)-(D)Asp-G-bhF-Sar-NH2]", "DOR EC50": "≤ 1"}, {"binder": "H-[Dmt][dR]GW-NH2 (SMILES Cc1cc(O)cc(C)c1C[C@H](N)C(=O)N[C@H](CCCNC(=N)N)C(=O)NCC(=O)N[C@@H](Cc1c[nH]c2ccccc12)C(N)=O)", "note": "[H-DMT-r-G-W-NH2]", "DOR EC50": "≤ 50"}, {"binder": "H-[Phe(2,6-Me2,4-CONH2)][dA]G[Tic][Sar]-NH2", "note": "[H-Phe(DMC)-a-G-Tic-Sar-NH2]", "DOR EC50": "≤ 50"}, {"binder": "H-[Phe(2,6-Me2,4-CONH2)][Aib]G[β3hF][Sar]-NH2 (SMILES Cc1cc(C(N)=O)cc(C)c1C[C@H](N)C(=O)NC(C)(C)C(=O)NCC(=O)N[C@H](CC(=O)N(C)CC(N)=O)Cc1ccccc1)", "note": "[H-Phe(DMC)-Aib-G-bhF-Sar-NH2]", "DOR EC50": "≤ 50"}, {"binder": "H-[Dmt][dR]F[αMeF]-NH2 (SMILES Cc1cc(O)cc(C)c1C[C@H](N)C(=O)N[C@H](CCCNC(=N)N)C(=O)N[C@@H](Cc1ccccc1)C(=O)N[C@@](C)(Cc1ccccc1)C(N)=O)", "note": "[H-DMT-r-F-alpha-MePhe-NH2]", "DOR EC50": "≤ 10"}, {"binder": "H-[Phe(4-tetrazolyl)][dA]G[β3hF][Sar]-NH2", "note": "[H-Phe(4-tetrazolyl)-a-G-bhF-Sar-NH2]", "DOR EC50": "≤ 200"}, {"binder": "H-[Dmt][dR][Sar]W-NH2 (SMILES Cc1cc(O)cc(C)c1C[C@H](N)C(=O)N[C@H](CCCNC(=N)N)C(=O)N(C)CC(=O)N[C@@H](Cc1c[nH]c2ccccc12)C(N)=O)", "note": "[H-DMT-r-Sar-W-NH2]", "DOR EC50": "> 200"}, {"binder": "H-[Dmt][dR][Dip][Sar]-NH2 (SMILES Cc1cc(O)cc(C)c1C[C@H](N)C(=O)N[C@H](CCCNC(=N)N)C(=O)N[C@H](C(=O)N(C)CC(N)=O)C(c1ccccc1)c1ccccc1)", "note": "[H-DMT-r-DPA-Sar-NH2 (Seq. ID 32)]", "DOR EC50": "> 200"}, {"binder": "H-[Dmt][dR][BIP][Sar]-NH2", "note": "[H-DMT-r-BIP-Sar-NH2]", "DOR EC50": "≤ 1"}, {"binder": "H-[Dmt][dR][Phe(3,4-Cl2)][Sar]-NH2 (SMILES Cc1cc(O)cc(C)c1C[C@H](N)C(=O)N[C@H](CCCNC(=N)N)C(=O)N[C@@H](Cc1ccc(Cl)c(Cl)c1)C(=O)N(C)CC(N)=O)", "note": "[H-DMT-r-Phe(3,4-diCl)-Sar-NH2]", "DOR EC50": "≤ 50"}, {"binder": "H-[Dmt][dR]F[Phe(3,4-(OMe)2)]-NH2 (SMILES COc1ccc(C[C@H](NC(=O)[C@H](Cc2ccccc2)NC(=O)[C@@H](CCCNC(=N)N)NC(=O)[C@@H](N)Cc2c(C)cc(O)cc2C)C(N)=O)cc1OC)", "note": "[H-DMT-r-F-Phe(3,4-diOMe)-NH2]", "DOR EC50": "≤ 10"}, {"binder": "H-[Dmt][dR]F[Dip]-NH2 (SMILES Cc1cc(O)cc(C)c1C[C@H](N)C(=O)N[C@H](CCCNC(=N)N)C(=O)N[C@@H](Cc1ccccc1)C(=O)N[C@H](C(N)=O)C(c1ccccc1)c1ccccc1)", "note": "[H-DMT-r-F-DPA-NH2]", "DOR EC50": "≤ 50"}, {"binder": "H-[Dmt][dR]W[Nle]-NH2 (SMILES CCCC[C@H](NC(=O)[C@H](Cc1c[nH]c2ccccc12)NC(=O)[C@@H](CCCNC(=N)N)NC(=O)[C@@H](N)Cc1c(C)cc(O)cc1C)C(N)=O)", "note": "[H-DMT-r-W-Nle-NH2]", "DOR EC50": "≤ 50"}, {"binder": "H-[Dmt][NMeR]G[β3hF][Sar]-NH2 (SMILES Cc1cc(O)cc(C)c1C[C@H](N)C(=O)N(C)[C@@H](CCCNC(=N)N)C(=O)NCC(=O)N[C@H](CC(=O)N(C)CC(N)=O)Cc1ccccc1)", "note": "[H-DMT-N(Me)Arg-G-bhF-Sar-NH2]", "DOR EC50": "≤ 200"}, {"binder": "H-[Dmt][dR]F[Nle]-NH2 (SMILES CCCC[C@H](NC(=O)[C@H](Cc1ccccc1)NC(=O)[C@@H](CCCNC(=N)N)NC(=O)[C@@H](N)Cc1c(C)cc(O)cc1C)C(N)=O)", "note": "[H-DMT-r-F-Nle-NH2]", "DOR EC50": "≤ 50"}, {"binder": "H-[Dmt][dR]FV-NH2 (SMILES Cc1cc(O)cc(C)c1C[C@H](N)C(=O)N[C@H](CCCNC(=N)N)C(=O)N[C@@H](Cc1ccccc1)C(=O)N[C@H](C(N)=O)C(C)C)", "note": "[H-DMT-r-F-V-NH2]", "DOR EC50": "≤ 10"}, {"binder": "H-[Dmt][dA][THP][β3hF][Sar]-NH2 (reading uncertain; also: printed as H-DMT-a-THP-bhF-Sar-NH2)", "note": "[H-DMT-a-THP-bhF-Sar-NH2]", "DOR EC50": "≤ 200"}, {"binder": "H-[Phe(3-OH)][dA]G[β3hF][Sar]-NH2", "note": "[H-meta-Tyr-a-G-bhF-Sar-NH2]", "DOR EC50": "> 200"}, {"binder": "H-[Dmt][dR][Phe(4-tBu)][Sar]-NH2 (SMILES Cc1cc(O)cc(C)c1C[C@H](N)C(=O)N[C@H](CCCNC(=N)N)C(=O)N[C@@H](Cc1ccc(C(C)(C)C)cc1)C(=O)N(C)CC(N)=O)", "note": "[H-DMT-r-4-tBu-Phe-Sar-NH2]", "DOR EC50": "> 200"}, {"binder": "H-[Trp(5-OH)][dA]G[β3hF][Sar]-NH2", "note": "[H-Trp(5-OH)-a-G-bhF-Sar-NH2]", "DOR EC50": "≤ 200"}, {"binder": "H-[Dmt][dR][Phe(3,4-(OMe)2)][Sar]-NH2 (SMILES COc1ccc(C[C@H](NC(=O)[C@@H](CCCNC(=N)N)NC(=O)[C@@H](N)Cc2c(C)cc(O)cc2C)C(=O)N(C)CC(N)=O)cc1OC)", "note": "[H-DMT-r-Phe(3,4-diOMe)-Sar-NH2]", "DOR EC50": "> 200"}, {"binder": "H-[Dmt][dR]F[hPhe]-NH2 (SMILES Cc1cc(O)cc(C)c1C[C@H](N)C(=O)N[C@H](CCCNC(=N)N)C(=O)N[C@@H](Cc1ccccc1)C(=O)N[C@@H](CCc1ccccc1)C(N)=O)", "note": "[H-DMT-r-F-HomoPhe-NH2]", "DOR EC50": "≤ 10"}, {"binder": "H-[Dmt][dA][βAla][β3hF][Sar]-NH2", "note": "[H-DMT-a-bAla-bhF-Sar-NH2]", "DOR EC50": "≤ 200"}]}]}
